Experimental data as given in PMC10105715.

Molecular target: non-natural gp130:IL-11R:LIFR cytokine receptor complex on Ba/F3-gp130:IL-11R:LIFR cells (UniProt P40189)
Sequence (P40189 23-918, chain 1 of 3): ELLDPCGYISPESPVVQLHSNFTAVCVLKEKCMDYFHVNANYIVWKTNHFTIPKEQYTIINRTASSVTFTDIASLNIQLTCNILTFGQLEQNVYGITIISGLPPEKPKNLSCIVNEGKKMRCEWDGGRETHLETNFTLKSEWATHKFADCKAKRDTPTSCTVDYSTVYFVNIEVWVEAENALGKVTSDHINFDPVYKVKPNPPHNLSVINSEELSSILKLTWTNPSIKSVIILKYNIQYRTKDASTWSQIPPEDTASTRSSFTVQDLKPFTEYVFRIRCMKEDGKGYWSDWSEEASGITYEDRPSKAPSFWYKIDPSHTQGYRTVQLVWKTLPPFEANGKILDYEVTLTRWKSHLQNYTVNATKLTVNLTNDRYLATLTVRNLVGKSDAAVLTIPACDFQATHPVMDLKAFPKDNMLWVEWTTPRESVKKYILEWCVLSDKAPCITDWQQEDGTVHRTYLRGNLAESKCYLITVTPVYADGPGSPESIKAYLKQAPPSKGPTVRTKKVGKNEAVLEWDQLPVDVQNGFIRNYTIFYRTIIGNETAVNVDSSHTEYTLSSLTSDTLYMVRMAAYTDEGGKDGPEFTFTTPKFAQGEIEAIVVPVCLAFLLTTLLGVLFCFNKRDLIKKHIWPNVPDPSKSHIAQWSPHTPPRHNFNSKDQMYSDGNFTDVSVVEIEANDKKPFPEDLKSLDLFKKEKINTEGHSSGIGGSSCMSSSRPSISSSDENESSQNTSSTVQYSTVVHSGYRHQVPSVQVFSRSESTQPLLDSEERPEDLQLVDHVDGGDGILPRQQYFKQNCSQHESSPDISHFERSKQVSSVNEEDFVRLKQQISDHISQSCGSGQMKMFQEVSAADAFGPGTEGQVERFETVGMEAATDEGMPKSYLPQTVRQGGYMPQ
Sequence (Q14626 23-422, chain 2 of 3, further chain): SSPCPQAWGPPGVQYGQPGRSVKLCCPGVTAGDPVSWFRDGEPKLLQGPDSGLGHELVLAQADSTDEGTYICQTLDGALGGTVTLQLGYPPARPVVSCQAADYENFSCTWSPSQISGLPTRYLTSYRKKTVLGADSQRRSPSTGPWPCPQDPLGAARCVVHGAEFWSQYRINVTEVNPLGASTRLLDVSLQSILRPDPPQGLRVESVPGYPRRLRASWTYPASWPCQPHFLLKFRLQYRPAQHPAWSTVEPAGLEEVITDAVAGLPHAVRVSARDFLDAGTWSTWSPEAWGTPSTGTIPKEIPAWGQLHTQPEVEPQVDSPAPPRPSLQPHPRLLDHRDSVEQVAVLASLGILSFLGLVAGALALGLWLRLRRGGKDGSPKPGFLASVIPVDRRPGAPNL
Sequence (P42702 45-1097, chain 3 of 3, further chain): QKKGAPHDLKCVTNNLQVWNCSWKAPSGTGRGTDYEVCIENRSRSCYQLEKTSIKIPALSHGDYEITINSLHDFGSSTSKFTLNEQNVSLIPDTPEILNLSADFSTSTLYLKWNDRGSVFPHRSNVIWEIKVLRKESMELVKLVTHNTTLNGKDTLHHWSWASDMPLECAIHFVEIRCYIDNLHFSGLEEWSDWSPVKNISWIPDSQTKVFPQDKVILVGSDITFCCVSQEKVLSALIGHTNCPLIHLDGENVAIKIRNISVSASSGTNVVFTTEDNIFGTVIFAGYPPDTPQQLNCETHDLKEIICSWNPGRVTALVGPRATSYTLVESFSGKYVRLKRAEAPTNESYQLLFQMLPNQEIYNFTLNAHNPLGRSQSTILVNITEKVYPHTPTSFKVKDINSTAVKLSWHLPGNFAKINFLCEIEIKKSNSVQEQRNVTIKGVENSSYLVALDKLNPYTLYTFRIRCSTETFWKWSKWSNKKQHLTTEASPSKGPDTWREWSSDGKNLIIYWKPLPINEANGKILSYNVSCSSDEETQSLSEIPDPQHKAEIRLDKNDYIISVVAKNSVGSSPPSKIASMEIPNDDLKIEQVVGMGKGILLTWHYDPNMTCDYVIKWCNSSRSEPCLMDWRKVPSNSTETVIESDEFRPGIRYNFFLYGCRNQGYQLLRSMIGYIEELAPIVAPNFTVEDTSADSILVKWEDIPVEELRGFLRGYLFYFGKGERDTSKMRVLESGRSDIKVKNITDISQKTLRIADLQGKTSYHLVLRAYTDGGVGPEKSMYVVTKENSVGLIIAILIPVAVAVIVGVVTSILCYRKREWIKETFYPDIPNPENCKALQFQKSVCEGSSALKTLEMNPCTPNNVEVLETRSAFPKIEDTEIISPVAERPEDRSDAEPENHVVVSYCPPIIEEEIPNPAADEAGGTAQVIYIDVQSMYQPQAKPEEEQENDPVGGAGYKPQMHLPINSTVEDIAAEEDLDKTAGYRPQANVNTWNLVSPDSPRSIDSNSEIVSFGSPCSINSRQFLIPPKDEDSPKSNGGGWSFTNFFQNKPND

proliferation of Ba/F3-gp130:IL-11R:LIFR cells (CellTiter Blue), GIL-11 0.0005–500 ng/ml; EC50: 1.44 ng/mL
Substance: cytokimera GIL-11 (from UniProt P20809 22-57; P15018 64-88; P20809 73-110; P15018 119-138; P20809 129-161; P15018 172-189; P20809 180-199) (ligand)
